From article PMC8497999 (iScience, 2021)
Changes are numbered by the printed parent chain. Names may count otherwise. Like-named read-outs stand apart in the source and are kept apart here.

T1: His6-ECSIT (mature human mitochondrial ECSIT with N-terminal His tag) (human, UniProt Q9BQ95 49-431)
T1 sequence: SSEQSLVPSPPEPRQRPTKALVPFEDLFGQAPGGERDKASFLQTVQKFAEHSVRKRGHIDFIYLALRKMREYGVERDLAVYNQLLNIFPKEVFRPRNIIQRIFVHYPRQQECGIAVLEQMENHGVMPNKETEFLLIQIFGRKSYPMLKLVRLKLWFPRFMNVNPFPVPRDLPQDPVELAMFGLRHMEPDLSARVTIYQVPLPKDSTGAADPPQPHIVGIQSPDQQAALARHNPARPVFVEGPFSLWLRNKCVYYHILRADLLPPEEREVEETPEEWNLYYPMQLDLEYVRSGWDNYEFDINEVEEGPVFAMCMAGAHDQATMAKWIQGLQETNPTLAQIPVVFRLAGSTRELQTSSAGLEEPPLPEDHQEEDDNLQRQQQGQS

B1: His6-SMT3-NDUFAF1 (SUMO fusion of mature human NDUFAF1) (natural protein)
chain: YPFLGIRFAEYSSSLQKPVASPGKASSQRKTEGDLQGDHQKEVALDITSSEEKPDVSFDKAIRDEAIYHFRLLKDEIVDHWRGPEGHPLHEVLLEQAKVVWQFRGKEDLDKWTVTSDKTIGGRSEVFLKMGKNNQSALLYGTLSSEAPQDGESTRSGYCAMISRIPRGAFERKMSYDWSQFNTLYLRVRGDGRPWMVNIKEDTDFFQRTNQMYSYFMFTRGGPYWQEVKIPFSKFFFSNRGRIRDVQHELPLDKISSIGFTLADKVDGPFFLEIDFIGVFTDPAHTEEFAYENSPELNPRLFK
B2: ECSIT, tag-free (mature human mitochondrial ECSIT) (natural protein)
chain: T1 sequence
B3: His6-C-ECSIT (C-terminal domain of ECSIT, Leu249-Ser431, with N-terminal His tag) (domain or fragment)
chain: LPKDSTGAADPPQPHIVGIQSPDQQAALARHNPARPVFVEGPFSLWLRNKCVYYHILRADLLPPEEREVEETPEEWNLYYPMQLDLEYVRSGWDNYEFDINEVEEGPVFAMCMAGAHDQATMAKWIQGLQETNPTLAQIPVVFRLAGSTRELQTSSAGLEEPPLPEDHQEEDDNLQRQQQGQS
B4: C-ECSIT, tag-free (C-terminal domain of ECSIT, Leu249-Ser431) (domain or fragment)
chain: B3 chain
B5: ACAD9-His6 R469W (enzyme)
chain: AFAKELFLGKIKKKEVFPFPEVSQDELNEINQFLGPVEKFFTEEVDSRKIDQEGKIPDETLEKLKSLGLFGLQVPEEYGGLGFSNTMYSRLGEIISMDGSITVTLAAHQAIGLKGIILAGTEEQKAKYLPKLASGEHIAAFCLTEPASGSDAASIRSRATLSEDKKHYILNGSKVWITNGGLANIFTVFAKTEVVDSDGSVKDKITAFIVERDFGGVTNGKPEDKLGIRGSNTCEVHFENTKIPVENILGEVGDGFKVAMNILNSGRFSMGSVVAGLLKRLIEMTAEYACTRKQFNKRLSEFGLIQEKFALMAQKAYVMESMTYLTAGMLDQPGFPDCSIEAAMVKVFSSEAAWQCVSEALQILGGLGYTRDYPYERILRDTRILLIFEGTNEILRMYIALTGLQHAGRILTTRIHELKQAKVSTVMDTVGWRLRDSLGRTVDLGLTGNHGVVHPSLADSANKFEENTYCFGRTVETLLLRFGKTIMEEQLVLKRVANILINLYGMTAVLSRASRSIRIGLRNHDHEVLLANTFCVEAYLQNLFSLSQLDKYAPENLDEQIKKVSQQILEKRAYICAHPLDRTC
B6: ACAD9-His6 (wild type ACAD9 with a C-terminal His-tag) (enzyme)
chain: B5 chain with W432R
B7: ACAD9-His6 E426Q (enzyme)
chain: B5 chain with E389Q, W432R
B8: ACAD9 (non-tagged wild type) (enzyme)
chain: B5 chain with W432R
B9: ACAD9-His6 R518H (enzyme)
chain: B5 chain with W432R, R481H
B10: ACAD9-His6 R532W (enzyme)
chain: B5 chain with W432R, R495W
B11: Loop12-ACAD9 (ACAD9-His6 with the linker between Thr450 and Asp480 replaced by 12 residues of GGS repeats) (enzyme)
chain: AFAKELFLGKIKKKEVFPFPEVSQDELNEINQFLGPVEKFFTEEVDSRKIDQEGKIPDETLEKLKSLGLFGLQVPEEYGGLGFSNTMYSRLGEIISMDGSITVTLAAHQAIGLKGIILAGTEEQKAKYLPKLASGEHIAAFCLTEPASGSDAASIRSRATLSEDKKHYILNGSKVWITNGGLANIFTVFAKTEVVDSDGSVKDKITAFIVERDFGGVTNGKPEDKLGIRGSNTCEVHFENTKIPVENILGEVGDGFKVAMNILNSGRFSMGSVVAGLLKRLIEMTAEYACTRKQFNKRLSEFGLIQEKFALMAQKAYVMESMTYLTAGMLDQPGFPDCSIEAAMVKVFSSEAAWQCVSEALQILGGLGYTRDYPYERILRDTRILLIFEGTNEILRMYIALTGLQHAGRILTTGGSGGSGGSGGSDLGLTGNHGVVHPSLADSANKFEENTYCFGRTVETLLLRFGKTIMEEQLVLKRVANILINLYGMTAVLSRASRSIRIGLRNHDHEVLLANTFCVEAYLQNLFSLSQLDKYAPENLDEQIKKVSQQILEKRAYICAHPLDRTC

Key:
[1] = biological target: T1, His6-ECSIT (mature human mitochondrial …); test: SEC
[2] = biological target: T1, His6-ECSIT (mature human mitochondrial …); test: SEC; remark: listed apart in the source
[3] = biological target: B6; test: pull-down
[4] = biological target: B8; test: SEC
[5] = biological target: the molecule itself; test: SEC
[6] = biological target: the molecule itself; test: SEC-SAXS

Binder	stoichiometry N [5]	other results
B1		stoichiometry N [1]: 1 NDUFAF1 monomer per ECSIT monomer (2:2); stoichiometry N [2]: 1 monomer:monomer
B2		stoichiometry N [3]: ~1 monomer:monomer
B3	4	stoichiometry N [4]: 1 C-ECSIT monomer per ACAD9 monomer (4:4)
B4		stoichiometry N [3]: ~1 monomer:monomer
B5	2	
B6	2	
B7	2	
B8		stoichiometry N [6]: 2
B9	2	
B10	2	
B11	2	
